Drawing on PMC7699296, “Dual-Channel Stopped-Flow Apparatus for Simultaneous Fluorescence, Anisotropy, and FRET Kinetic Data Acquisition for Binary and Ternary Biological Complexes” (Biosensors, 2020), this text covers kon, Kd and dH for one molecule.

Holding throughout (conditions): both partners purified
Experiment [1] concerns the target T1, full-length Tata Binding Protein from Saccharomyces cerevisiae (Saccharomyces cerevisiae, UniProt P13393 1-240).
T1 construct: also called yTBP; TBP; source: Escherichia coli, purified
T1 sequence (looked up): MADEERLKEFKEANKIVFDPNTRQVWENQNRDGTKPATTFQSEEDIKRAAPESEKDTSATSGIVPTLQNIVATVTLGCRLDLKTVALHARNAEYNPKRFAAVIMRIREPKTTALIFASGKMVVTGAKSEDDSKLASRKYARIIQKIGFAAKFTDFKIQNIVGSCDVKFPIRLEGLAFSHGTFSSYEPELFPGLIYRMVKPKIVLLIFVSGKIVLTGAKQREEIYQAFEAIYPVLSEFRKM
The experiment is described as follows: stopped-flow fluorescence anisotropy kinetics (dual-channel, rF(t)); 17 °C; preformed yTBP (220 nM)-AdMLP31ds*Flint (20 nM) in syringe 1, 850 nM TFIIA in syringe 2 (concentrations after mixing); 25 mM Tris, 100 mM KCl, 5 mM MgCl2, 1 mM CaCl2, 2 mM DTT; biphasic fit, kon from the fast eigenvalue. In general terms: In fluorescence polarisation assays a small probe gives low polarisation when free and higher when bound to something large.

The target of experiment [2] is T1, full-length Tata Binding Protein from …. The experiment is described as follows: stopped-flow fluorescence anisotropy kinetics (dual-channel, rF(t)); 25 °C; preformed yTBP (220 nM)-AdMLP31ds*Flint (20 nM) in syringe 1, 850 nM TFIIA in syringe 2 (concentrations after mixing); 25 mM Tris, 100 mM KCl, 5 mM MgCl2, 1 mM CaCl2, 2 mM DTT; biphasic fit, kon from the fast eigenvalue.

The target is the same in experiment [3]. Description: stopped-flow fluorescence anisotropy kinetics (dual-channel, rF(t)); 15 °C; preformed yTBP (220 nM)-AdMLP31ds*Flint (20 nM) in syringe 1, 850 nM TFIIA in syringe 2 (concentrations after mixing); 25 mM Tris, 100 mM KCl, 5 mM MgCl2, 1 mM CaCl2, 2 mM DTT; biphasic fit, kon from the fast eigenvalue.
Experiment [4] has the same target. The experiment is described as follows: stopped-flow fluorescence anisotropy kinetics (dual-channel, rF(t)); derived over the range 15 °C to 25 °C from the kon values: van't Hoff plot, and KD estimated with a dissociation rate constant cited from other work.

B1: yeast Transcription Factor II A (complex)
chain 1: MSNAEASRVYEIIVESVVNEVREDFENAGIDEQTLQDLKNIWQKKLTETKVTTFSWDNQFNEGNINGVQNDLNFNLATPGVNSSEFNIKEENTGNEGLILPNINSNNNIPHSGETNINTNTVEATNNSGATLNTNTSGNTNADVTSQPKIEVKPEIELTINNANITTVENIDDESEKKDDEEKEEDVEKTRKEKEQIEQVKLQAKKEKRSALLDTDEVGSELDDSDDDYLISEGEEDGPDENLMLCLYDKVTRTKARWKCSLKDGVVTINRNDYTFQKAQVEAEWV
chain 2: MAVPGYYELYRRSTIGNSLVDALDTLISDGRIEASLAMRVLETFDKVVAETLKDNTQSKLTVKGNLDTYGFCDDVWTFIVKNCQVTVEDSHRDASQNGSGDSQSVISVDKLRIVACNSKKSE
modifications: Construct and limits are not given; the full-length TOA1/TOA2 heterodimer is assumed. Species is inferred from the label yTFIIA and the S. cerevisiae TBP used with it.
As a reminder, the kon is the second-order rate constant of association. Broadly, the Kd is a measure of binding affinity in units of concentration. In the case of B1, the values for the kon in experiment [1], in experiment [2] and in experiment [3] were 1.84e+06 M⁻¹ s⁻¹, 4.68e+06 M⁻¹ s⁻¹ and 1.45e+06 M⁻¹ s⁻¹, respectively. In addition, the Kd in experiment [4] was 2.1 to 6.6 nM. In experiment [4], the dH was 19.6 ± 1.6 kcal/mol.
